The values that follow come from US20150284428A1 (INTERK PEPTIDE THERAPEUTICS, published 2015).

For this experiment, the target named is T1, cytoplasmic domain of β6 having the amino acid sequence HDRKEVAKFEAERSKAKWQTGTNPLYRGSTSTFKNVTYKHREKQKVDLSTDC
T1 construct: Integrin β6 subunit cytoplasmic domain; also called β6 domain; cytoplasmic domain fragment of β6
T1 chain: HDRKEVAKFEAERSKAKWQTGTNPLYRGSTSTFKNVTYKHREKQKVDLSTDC
As to the kind of experiment: binding assay of MAP kinase fragments with β6 cytoplasmic domain, FIG. 4.

Consider HRDLKPSNLAVNEDCELKILDFGLAR (also called fragment of p38 MAP kinase) [p38 MAP kinase fragment HRDLKPSNLAVNEDCELKILDFGLAR], for which the binding result is recorded as “binds”.
